Experimental data from article PMC5147500 (2016).

Target: retromer (Homo sapiens, UniProt O75436)
Assay: ITC

Question: For AQPELYLLNTMDADSLVSR (in presence of SNX3) [DMT1-II recycling signal], which Kd is on record?
Answer: The Kd was ~127 µM.
